# Measurements published in patent publication US20030113828A1 (published 2003).
# Square brackets hold non-standard residues; d marks the D form. Ends that are not written are not given here. pY = N[C@@H](Cc1ccc(OP(=O)(O)O)cc1)C(=O)O
# T1: tandem SH2 domains of SHP-2 (UniProt Q06124 1-220, limits assumed)
# T1 construct: domain: tandem SH2 domains
# T1 sequence (looked up): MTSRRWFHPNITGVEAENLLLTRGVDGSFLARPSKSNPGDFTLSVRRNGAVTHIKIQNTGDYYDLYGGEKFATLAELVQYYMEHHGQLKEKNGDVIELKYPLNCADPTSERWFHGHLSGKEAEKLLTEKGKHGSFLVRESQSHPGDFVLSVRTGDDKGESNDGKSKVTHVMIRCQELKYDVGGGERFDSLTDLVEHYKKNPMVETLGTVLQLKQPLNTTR
# T2: GST-Zap-70(1-103) (human, UniProt P43403 1-103)
# T2 construct: range 1-103; also called Zap-70 N-terminal SH2 domain; not shown: glutathione S-transferase (GST) from pGEX-2T
# T2 sequence (looked up): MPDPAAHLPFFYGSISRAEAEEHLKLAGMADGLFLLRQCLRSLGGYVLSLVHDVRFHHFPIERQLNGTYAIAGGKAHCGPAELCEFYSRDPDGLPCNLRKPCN
# T3: GST-Zap-70(163-254) (human, UniProt P43403 163-254)
# T3 construct: also called Zap-70 C-terminal SH2 domain; not shown: glutathione S-transferase (GST) from pGEX-2T
# T3 sequence (looked up): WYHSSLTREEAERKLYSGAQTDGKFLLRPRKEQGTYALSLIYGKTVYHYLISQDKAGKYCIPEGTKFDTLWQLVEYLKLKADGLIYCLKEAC
# T4: GST-Zap-70(1-337) (human, UniProt P43403 1-337)
# T4 construct: range 1-337; also called tandem SH2 domains of Zap-70; not shown: glutathione S-transferase (GST) from pGEX-2T
# T4 sequence (looked up): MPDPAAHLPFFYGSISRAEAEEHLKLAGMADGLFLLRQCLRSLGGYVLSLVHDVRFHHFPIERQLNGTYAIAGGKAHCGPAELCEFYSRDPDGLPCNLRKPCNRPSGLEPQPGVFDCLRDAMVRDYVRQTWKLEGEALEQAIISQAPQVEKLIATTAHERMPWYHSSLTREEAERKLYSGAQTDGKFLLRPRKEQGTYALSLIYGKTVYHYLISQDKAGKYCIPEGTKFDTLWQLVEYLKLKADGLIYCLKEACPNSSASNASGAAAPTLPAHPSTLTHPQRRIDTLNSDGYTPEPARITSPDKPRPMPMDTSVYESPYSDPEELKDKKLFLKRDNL
# T5: Zap-70(1-132) (human, UniProt P43403 1-132)
# T5 construct: range 1-132
# T5 sequence (looked up): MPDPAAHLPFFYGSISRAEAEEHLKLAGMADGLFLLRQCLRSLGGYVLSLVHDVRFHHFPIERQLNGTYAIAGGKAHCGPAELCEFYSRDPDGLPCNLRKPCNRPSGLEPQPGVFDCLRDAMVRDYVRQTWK
# T6: Zap-70 (human, UniProt P43403 1-619)
# T6 construct: also called Syk paralog
# T6 sequence (looked up): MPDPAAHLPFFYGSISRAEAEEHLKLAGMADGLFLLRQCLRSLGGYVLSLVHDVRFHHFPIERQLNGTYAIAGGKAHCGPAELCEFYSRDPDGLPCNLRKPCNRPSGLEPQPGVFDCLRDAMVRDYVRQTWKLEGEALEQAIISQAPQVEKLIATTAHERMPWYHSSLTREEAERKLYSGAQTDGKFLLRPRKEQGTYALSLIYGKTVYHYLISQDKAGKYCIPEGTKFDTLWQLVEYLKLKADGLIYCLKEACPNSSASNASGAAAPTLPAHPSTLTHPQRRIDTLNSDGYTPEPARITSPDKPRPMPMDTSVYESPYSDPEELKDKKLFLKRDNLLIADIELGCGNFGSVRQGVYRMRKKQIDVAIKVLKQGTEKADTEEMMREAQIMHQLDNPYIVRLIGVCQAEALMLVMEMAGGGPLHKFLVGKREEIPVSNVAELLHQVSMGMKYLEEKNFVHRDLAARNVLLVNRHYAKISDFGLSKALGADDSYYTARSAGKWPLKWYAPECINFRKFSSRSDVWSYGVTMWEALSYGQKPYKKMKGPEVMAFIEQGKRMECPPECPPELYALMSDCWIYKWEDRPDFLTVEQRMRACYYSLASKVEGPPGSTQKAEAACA
# Key:
# [1] = target: T7, Syk protein tyrosine kinase (wild type) (UniProt P43405 1-635); assay: cell-based or functional assay
# [2] = target: T1, tandem SH2 domains of SHP-2; assay: direct binding assay
# Procedure: (§1) The regions involved in phosphotyrosine binding are widely separated and in opposite orientation (Hof et al. (1998) Cell 92:441-450).
# (§2) For direct binding assays, model peptides (1 mg) were dissolved in 1 ml buffer containing 20 mM Tris (pH 7.9), 500 mM NaCl, and 6 M urea. To this, 50 ul packed His-Bind® Resin (Novagen, Madison, Wis.) was added and the mixture was rotated for 1 hour at room temperature. Immobilized peptides were washed 5× in above buffer without urea, and resuspended in 500 μl buffer containing 20 mM PIPES pH 6.8, 50 mM NaCl, 3 mM MgCl₂, 150 mM sucrose, 50 mM NaF, 40 mM Na₄P₂O₇*10H₂O (buffer A) supplemented with 0.1% TritonX-100 and 3 mM MgCl₂. Purified GST-fusion proteins were added to 0.5 ml buffer A supplemented with 0.1% TritonX-100 and 3 mM MgCl₂. Five μl of total packed resin loaded with various integrin cytoplasmic domain model proteins was added to the GST-fusion protein. The mixture was incubated for 40 minutes at room temperature with continuous rotation. The beads were then washed five times in buffer A with 0.1% TritonX-100 and 3 mM MgCl₂. Bound proteins were eluted by boiling in reducing sample buffer, fractionated by SDS PAGE, and immuno-blotted.
# GST-Syk(163-270) = target: T8, GST-Syk(163-270) (UniProt P43405 163-270); assay: direct binding assay
# T8 construct: also called C-terminal SH2 domain of Syk; not shown: glutathione S-transferase (GST) fusion partner
# Procedure: as §1, §2
# GST-Zap-70(1-103) = target: T2, GST-Zap-70(1-103); assay: direct binding assay
# Procedure: as §1, §2
# GST-Zap-70(163-254) = target: T3, GST-Zap-70(163-254); assay: direct binding assay
# Procedure: as §1, §2
# GST-Zap-70(1-337) [3] = target: T4, GST-Zap-70(1-337); assay: affinity chromatography / surface plasmon resonance
# [4] = target: Syk(6-370) cleaved from GST-Syk(6-370) by thrombin (UniProt P43405 6-370); assay: surface plasmon resonance (BIAcore 3000)
# Procedure: However integrins are far more abundant than ITAM containing receptor complexes on most cells. For example, Jurkat T cells express ˜80,000 copies of α4β1 (Chen et al. (1999) J Biol Chem 274:13167-13175) and only ˜-12,000 copies of the TCR (Graber et al. (1991) J Immunol 146:2935-2943) on their cell surface.
# Experimental procedures, integrin cytoplasmic domain modifications, and data analysis was performed in accordance with procedures described by Yan et al. ((2001) J Biol Chem 276:28164-28170).
# [5] = target: T9, GST fusion of the interdomain A of Syk (UniProt P43405 108-167); assay: direct binding assay with GST fusion of Syk interdomain A
# T9 construct: domain: interdomain A; also called Syk interdomain A GST-fusion protein; not shown: glutathione S-transferase (GST) fusion partner
# Procedure: as §1, §2
# Zap-70(1-162) = target: T10, Zap-70(1-162) (human, UniProt P43403 1-162); assay: binding of Zap-70 truncation mutants to the β3 tail
# T10 construct: range 1-162; also called N-terminal SH2 domain of Zap-70 with its intact IA domain
# Procedure: as §2
# Zap-70(1-132) = target: T5, Zap-70(1-132); assay: as above
# Procedure: as §2
# [6] = target: T7, Syk protein tyrosine kinase (wild type); assay: affinity chromatography of cell lysates on tail model protein beads, immunoblot
# Source text: (§3) The model protein mimics are designed with an N-terminal heptad repeat sequence joined to the integrin cytoplasmic domains. The repeats form a coiled-coil homodimer that dimerizes the integrin tails (Pfaff et al. (1998) J Biol Chem 273:6104-6109). These protein mimics are also describied in U.S. patent application Ser. No. 90/320,907, filed May 27, 1999 and U.S. patent application Ser. No. 90/323,447, filed Jun. 1, 1999, the teachings of which are herein incorporated by reference in their entirety.
# (§4) Following incubation, beads were washed and bound protein was analyzed by immunoblotting.
# Zap-70 = target: T6, Zap-70; assay: as above
# Source text: as §3, §4
# GST-Syk(6-370) = GST-Syk(6-370) (UniProt P43405 6-370); assay: direct binding of GST fusion protein to tail model protein beads, immunoblot
# Procedure: as §4, §2
# GST-Zap-70(1-337) [7] = target: T4, GST-Zap-70(1-337); assay: as above
# Procedure: as §4, §2
# [8] = target: T7, Syk protein tyrosine kinase (wild type); assay: binding to β3 tail deletion mutant in vitro
# Procedure: as §2
binder,measurement,setting,value
DGV[pY]TGLSTRNQET[pY]ETLKTCR [dually-phosphorylated FcεRIγ chain ITAM peptide],activation of Syk kinase in vitro (EC50),[1],1000 to 2000 nM
"KLLITIHDRKEFAKFEEERARAKWDTANNPLYKEATSTFTNITYRGT (other, UniProt P05106 742-788, looked up, not shown: a dimerising Fc or GST, also: coiled-coil homodimer, domain: cytoplasmic domain; Coiled-coil homodimer; also called β3 tail; β3 tail model protein) [integrin β3 cytoplasmic tail model protein]",binding result,[2],no binding
same,binding result,GST-Syk(163-270),no binding
same,binding result,GST-Zap-70(1-103),binds
same,binding result,GST-Zap-70(163-254),no binding
same,binding result,GST-Zap-70(1-337) [3],binds
same,Kd,[4],24 nM
same,binding result,[5],no binding
same,binding result,Zap-70(1-162),binds
same,binding result,Zap-70(1-132),binds
"KLLIHLSDLREYRRFEKEKLKSQWNNDNPLFKSATTTVMNPKFAES (other, UniProt P05107 724-769, looked up, not shown: small tags and cut ends, not fully specified, domain: cytoplasmic domain) [β2 integrin cytoplasmic domain model protein]",binding result,GST-Zap-70(1-337) [3],binds
same,Kd,[4],36 nM
"KLLMIIHDRREFAKFEKEKMNAKWDTGENPIYKSAVTTVVNPKYEGK (other, UniProt P05556 752-798, looked up, not shown: small tags and cut ends, not fully specified, domain: cytoplasmic domain) [β1A integrin cytoplasmic domain model protein]",binding result,GST-Zap-70(1-337) [3],binds
"KLLITIHDRKEFAKFEEERARAKWDTANNPLAKEATSTFTNITYRGT (other, UniProt P05106 742-788, looked up, not shown: small tags and cut ends, not fully specified, domain: cytoplasmic domain; also called β3(Y747A) tail; point mutant of the β3 tail (Y747A)) [integrin β3(Y747A) cytoplasmic tail model protein]",binding result,[6],no binding
same,binding result,Zap-70,no binding
same,binding result,GST-Syk(6-370),no binding (tested: 5 nM)
same,binding result,GST-Zap-70(1-337) [7],no binding (tested: 5 nM)
"KLLITIHDRKEFAKFEEERARAKWDTANNPLYKEAT (other, UniProt P05106 742-777, looked up, not shown: small tags and cut ends, not fully specified, domain: cytoplasmic domain) [β3(752X) cytoplasmic tail model protein]",binding result,[8],no binding
"KLLITIHDRKEFAKFEEERARAKWDTANNPLYKEATSTFTNIT (other, UniProt P05106 742-784, looked up, not shown: small tags and cut ends, not fully specified, domain: cytoplasmic domain; C-terminal truncation) [β3(759X) cytoplasmic tail model protein]",binding result,[8],no binding
